From US20250101098A1 (R P SCHERER TECHNOLOGIES, published 2025)
Positions count from the first letter of the chain named.

T1: recombinant human Nectin-4-His protein (human, UniProt Q96NY8 32-349)
T1 construct: Rescreening antigen and bought ELISA antigen are treated as one molecule; also called human Nectin-4-His tagged; Ag1; not shown: His tag
T1 sequence: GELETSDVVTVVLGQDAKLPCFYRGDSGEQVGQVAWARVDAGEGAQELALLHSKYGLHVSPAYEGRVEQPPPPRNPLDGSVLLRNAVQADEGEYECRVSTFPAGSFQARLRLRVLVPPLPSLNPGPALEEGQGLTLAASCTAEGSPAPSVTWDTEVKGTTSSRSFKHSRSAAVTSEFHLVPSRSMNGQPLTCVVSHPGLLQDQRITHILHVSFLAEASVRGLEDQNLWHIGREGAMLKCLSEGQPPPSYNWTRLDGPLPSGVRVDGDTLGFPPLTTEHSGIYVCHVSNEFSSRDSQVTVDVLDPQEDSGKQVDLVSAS

T2: human nectin-4 protein expressed on the surface of cells (human, UniProt Q96NY8 32-510)
T2 sequence: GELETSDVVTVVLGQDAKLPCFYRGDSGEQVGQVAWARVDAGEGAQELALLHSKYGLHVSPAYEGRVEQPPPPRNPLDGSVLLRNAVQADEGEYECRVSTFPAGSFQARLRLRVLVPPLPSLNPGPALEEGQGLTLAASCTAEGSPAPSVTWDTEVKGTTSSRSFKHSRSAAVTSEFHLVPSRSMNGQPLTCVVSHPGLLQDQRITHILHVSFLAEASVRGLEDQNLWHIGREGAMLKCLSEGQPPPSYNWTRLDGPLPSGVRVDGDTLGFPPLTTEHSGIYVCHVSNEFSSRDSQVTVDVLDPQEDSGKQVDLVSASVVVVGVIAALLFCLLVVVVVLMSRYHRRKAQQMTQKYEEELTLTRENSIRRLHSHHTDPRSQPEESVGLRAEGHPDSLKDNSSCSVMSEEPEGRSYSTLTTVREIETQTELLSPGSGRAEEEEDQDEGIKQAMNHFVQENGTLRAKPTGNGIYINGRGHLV

B1: Nectin-4 5D9 VH3/VL3 (antibody, V domains shown)
VH: QVQLQESGPGLVKPSETLSLTCTVSGGSITNYGVHWIRQPPGKGLEWLGVIWSGGSTDYNPSLKSRVTISVDTSKNQFSLKLSSVTAADTAVYYCARSGKWYYFDYWGQGTLVTVSS
VL: DIQMTQSPSSLSASVGDRVTITCRASQSIYSNLAWYQQKPGKAPKLLVYAATNLASGVPSRFSGSGSGTDFTLTISSLQPEDFATYYCQHFWGTPTFGGGTKVEIK
notes: Humanized; also called 5D9 VH variant 3 / 5D9 VL variant 3
B2: Nectin-4 5D9 VH4/VL5 (antibody, V domains shown)
VH: B1 VH with E6Q, G27F, I29L, I37V, V67L, V71R, F78V, L80F, L82M
VL: B1 VL with A55Q
notes: Humanized; also called 5D9 VH variant 4 / 5D9 VL variant 5; Nectin-4 VH4/VL5
B3: Nectin-4 5D9 VH3/VL5 (antibody, V domains shown)
VH: B1 VH
VL: B1 VL with A55Q
notes: Humanized; also called 5D9 VH variant 3 / 5D9 VL variant 5
B4: Nectin-4 5D9 VH5/VL2 (antibody, V domains shown)
VH: B1 VH with I29L, I37V, L48I, D58N, V71R, F78V
VL: B1 VL with R18T, S28N, P40Q, S56D, T74K, S76N
notes: Humanized; also called 5D9 VH variant 5 / 5D9 VL variant 2
B5: Nectin-4 5D9 VH2/VL5 (antibody, V domains shown)
VH: B1 VH with G27F, P61A, K64V, V71R, N76S, S79F, S83N, T86Q, A88D, L112T
VL: B1 VL with A55Q
notes: Humanized; also called 5D9 VH variant 2 / 5D9 VL variant 5
B6: Nectin-4 5D9 VH5/VL3 (antibody, V domains shown)
VH: B1 VH with I29L, I37V, L48I, D58N, V71R, F78V
VL: B1 VL
notes: Humanized; also called 5D9 VH variant 5 / 5D9 VL variant 3
B7: Nectin-4 5D9 VH5/VL4 (antibody, V domains shown)
VH: B1 VH with I29L, I37V, L48I, D58N, V71R, F78V
VL: B1 VL with Q27E, S28N, S56D, F71Y
notes: Humanized; also called 5D9 VH variant 5 / 5D9 VL variant 4
B8: Nectin-4 5D9 VH2/VL3 (antibody, V domains shown)
VH: B1 VH with G27F, P61A, K64V, V71R, N76S, S79F, S83N, T86Q, A88D, L112T
VL: B1 VL
notes: Humanized; also called 5D9 VH variant 2 / 5D9 VL variant 3
B9: Nectin-4 5D9 VH3/VL2 (antibody, V domains shown)
VH: B1 VH
VL: B1 VL with R18T, S28N, P40Q, S56D, T74K, S76N
notes: Humanized; also called 5D9 VH variant 3 / 5D9 VL variant 2
B10: Nectin-4 5D9 VH4/VL3 (antibody, V domains shown)
VH: B1 VH with E6Q, G27F, I29L, I37V, V67L, V71R, F78V, L80F, L82M
VL: B1 VL
notes: Humanized; also called 5D9 VH variant 4 / 5D9 VL variant 3
B11: Nectin-4 5D9 VH3/VL4 (antibody, V domains shown)
VH: B1 VH
VL: B1 VL with Q27E, S28N, S56D, F71Y
notes: Humanized; also called 5D9 VH variant 3 / 5D9 VL variant 4
B12: Nectin-4 5D9 VH5/VL5 (antibody, V domains shown)
VH: B1 VH with I29L, I37V, L48I, D58N, V71R, F78V
VL: B1 VL with A55Q
notes: Humanized; also called 5D9 VH variant 5 / 5D9 VL variant 5
B13: Nectin-4 5D9 VH1/VL1 (antibody, V domains shown)
VH: QVQLKESGPGLVQPSETLSLTCTVSGFSITNYGVHWIRQSPGKGLEWLGVIWSGGSTDYNAAFVSRVTISRDNSKSQVFFKLNSVQADDTAVYYCARSGKWYYFDYWGQGTTVTVSS
VL: DIQMTQSPASLSASVGDTVTITCRASQNIYSNLAWYQQKQGKSPQLLVYAATNLADGVPSRFSGSGSGTQYTLKINSLQSEDFGTYYCQHFWGTPTFGGGTKVEIK
notes: Humanized; also called 5D9 VH variant 1 / 5D9 VL variant 1
B14: Nectin-4 5D9 VH2/VL1 (antibody, V domains shown)
VH: B13 VH with K5Q, Q13K, S40P, A62S, F63L, N73T, V78F, F80L
VL: B13 VL
notes: Humanized; also called 5D9 VH variant 2 / 5D9 VL variant 1
B15: Nectin-4 5D9 VH1/VL2 (antibody, V domains shown)
VH: B13 VH
VL: B1 VL with R18T, S28N, P40Q, S56D, T74K, S76N
notes: Humanized; also called 5D9 VH variant 1 / 5D9 VL variant 2
B16: Nectin-4 5D9 VH2/VL4 (antibody, V domains shown)
VH: B13 VH with K5Q, Q13K, S40P, A62S, F63L, N73T, V78F, F80L
VL: B1 VL with Q27E, S28N, S56D, F71Y
notes: Humanized; also called 5D9 VH variant 2 / 5D9 VL variant 4
B17: Nectin-4 5D9 VH2/VL2 (antibody, V domains shown)
VH: B13 VH with K5Q, Q13K, S40P, A62S, F63L, N73T, V78F, F80L
VL: B1 VL with R18T, S28N, P40Q, S56D, T74K, S76N
notes: Humanized; also called 5D9 VH variant 2 / 5D9 VL variant 2
B18: Nectin-4 5D9 VH1/VL3 (antibody, V domains shown)
VH: B13 VH
VL: B1 VL
notes: Humanized; also called 5D9 VH variant 1 / 5D9 VL variant 3
B19: Nectin-4 5D9 VH1/VL5 (antibody, V domains shown)
VH: B13 VH
VL: B1 VL with A55Q
notes: Humanized; also called 5D9 VH variant 1 / 5D9 VL variant 5
B20: Nectin-4 5D9 VH4/VL1 (antibody, V domains shown)
VH: B1 VH with E6Q, G27F, I29L, I37V, V67L, V71R, F78V, L80F, L82M
VL: B13 VL
notes: Humanized; also called 5D9 VH variant 4 / 5D9 VL variant 1; Nectin-4 VH4/VL1
B21: Nectin-4 5D9 VH3/VL1 (antibody, V domains shown)
VH: B1 VH
VL: B13 VL
notes: Humanized; also called 5D9 VH variant 3 / 5D9 VL variant 1
B22: Nectin-4 5D9 VH1/VL4 (antibody, V domains shown)
VH: B13 VH
VL: B1 VL with Q27E, S28N, S56D, F71Y
notes: Humanized; also called 5D9 VH variant 1 / 5D9 VL variant 4

Tests used:
[1] = molecular target: T1, recombinant human Nectin-4-His protein; test: ELISA, coated antigen
[2] = molecular target: T2, human nectin-4 protein expressed on the …; test: cell-based or functional assay

Binder | EC50 [1] [nM] | Cell kill IC50, HekNectin4 [2] [nM] | Cell kill IC50, MDA-MB468 [2] [nM] | Cell kill IC50, SKBR3 [2] [nM]
B1 | 23.9 | 27.1 | 15.6 | 10.6
B2 | 0.195 | 0.269 | 3.93 | 7.25
B3 | 7.23 | 40 | 43.3 | 14.9
B4 | 2.06 | 49.6 | 17.5 | 10.6
B5 | 14.7 | 182 | 252 | 234
B6 | 0.702 | 15.6 | 16.6 | 9.86
B7 | 11.5 | 22.1 | 11 | 9.53
B8 | 108 | 33.7 | 21.4 | 15.9
B9 | 8.62 | 54.8 | 17.7 | 15.3
B10 | 0.204 | 0.333 | 3.71 | 6.46
B11 | 43600 | 41.1 | 40.5 | 26
B12 | 56.1 | 33.5 | 24 | 17.8
B13 | 0.225 | 0.249 | 1.42 | 15
B14 | 0.279 | 3.93 | 21.4 | 14.7
B15 | 0.368 | 3.35 | 10.3 | 9.85
B16 | 0.765 | 17.8 | 27 | 18.5
B17 | 172 | 55.5 | 19.3 | 14.4
B18 | 0.321 | 2.94 | 10.3 | 9.36
B19 | 0.346 | 1.41 | 10.2 | 10.1
B20 | 0.212 | 0.182 | 1.08 | 3.85
B21 | > 20 | 73.3 | 41.6 | 46.9
B22 | 0.228 | 0.277 | 5.17 | 9.02
